Residue numbers refer to the chain shown, from its start. In names and notes the source's numbering stands.
B1: non-tagged Net4ΔC (gift from the Koch lab) (domain or fragment, mouse)
chain: CEKACNPRMGNLALGRKLRADTMCGQNATELFCFYSENADLTCRQPKCDKCNAAHSHLAHPPSAMADSSFRFPRTWWQSAEDVHREKIQLDLEAEFYFTHLIMVFKSPRPAAMVLDRSQDFGKTWKPYKYFATNCSATFGLEDDVVKKGAICTSRYSNPFPCTGGEVIFRALSPPYDIENPYSAKVQEQLKITNLRVRLLKRQSCPCQINDLNAKPHHFMHYAVYDFIVKGSCFCNGHADQCLPVEGFRPIKAPGAFHVVHGRCMCKHNTAGSHCQHCAPLYNDRPWEAADGRTGAPNECRTCKCNGHADTCHFDVNVWEASGNRSGGVCNNCQHNTEGQHCQRCKPGFYRDLRRPFSAPDACKACSCHPVGSAILPFSSVTFCDPSNGDCPCKPGVAGPHCDRCMVGYWGFGDYGCRPCDCAGSCDPLTGDC
B2: γ1ΔC (N-terminal fragment of laminin γ1), human, C-terminally flag-tagged (domain or fragment)
chain: QAAMDECTDEGGRPQRCMPEFVNAAFNVTVVATNTCGTPPEEYCVQTGVTGVTKSCHLCDAGQPHLQHGAAFLTDYNNQADTTWWQSQTMLAGVQYPSSINLTLHLGKAFDITYVRLKFHTSRPESFAIYKRTWEDGPWIPYQYYSGSCENTYSKANRGFIRTGGDEQQALCTDEFSDISPLTGGNVAFSTLEGRPSAYNFDNSPVLQEWVTATDISVTLNRLNTFGDEVFNDPKVLKSYYYAISDFAVGGRCKCNGHASECMKNEFDKLVCNCKHNTYGVDCEKCLPFFNDRPWRRATAESASECLPCDCNGRSQECYFDPELYRSTGHGGHCTNCQDNTDGAHCERCRENFFRLGNNEACSSCHCSPVGSLSTQCDSYGRCSCKPGVMGDKCDRCQPGFHSLTEAGCRPCSCDPSGSIDECNIETGRCVCKDNVEGFNCERCKPGFFNLESSNPRGCTP
modifications: N-glycans at N60 and N134
B3: γ1ΔC D266R (domain or fragment)
chain: QAAMDECTDEGGRPQRCMPEFVNAAFNVTVVATNTCGTPPEEYCVQTGVTGVTKSCHLCDAGQPHLQHGAAFLTDYNNQADTTWWQSQTMLAGVQYPSSINLTLHLGKAFDITYVRLKFHTSRPESFAIYKRTREDGPWIPYQYYSGSCENTYSKANRGFIRTGGDEQQALCTDEFSDISPLTGGNVAFSTLEGRPSAYNFDNSPVLQEWVTATDIRVTLNRLNTFGDEVFNRPKVLKSYYYAISDFAVGGRCKCNGHASECMKNEFDKLVCNCKHNTYGVDCEKCLPFFNDRPWRRATAESASECLP
B4: γ1ΔC R149E (domain or fragment)
chain: B3 chain with R116E, R233D
B5: γ1ΔC Y147R (domain or fragment)
chain: B3 chain with Y114R, R233D

Assays:
Assay in all cases: ELISA
[1] = target: non-tagged Net4ΔC (gift from the Koch lab) (mouse) (UniProt Q9JI33)
[2] = target: recombinant mouse laminin 111 (Lm111) (mouse, UniProt P19137 25-3083; P02469 22-1786; P02468 34-1607)
[3] = target: B1

Row | Kd [3] | Molecule | further results
1 |  | γ1ΔC D285R (from UniProt P11047 37-341) (domain or fragment) | Kd [1]: 1.57 nM
2 |  | B1 | Kd [2]: 0.39 ± 0.07 nM
3 | 2.93 ± 0.51 nM | B2 | 
4 | 4 ± 0.4 nM | B3 | 
5 | 1.89 ± 0.2 nM | B4 | 
6 | 2.28 ± 0.43 nM | B5 | 

From article PMC12328585 (Nature Communications, 2025)
